{"source": "patent US20030068806A1", "key": {"[1]": {"system": "T1, p70-bac heparanase (human recombinant heparanase secreted by baculovirus infected insect cells)", "T1 sequence": "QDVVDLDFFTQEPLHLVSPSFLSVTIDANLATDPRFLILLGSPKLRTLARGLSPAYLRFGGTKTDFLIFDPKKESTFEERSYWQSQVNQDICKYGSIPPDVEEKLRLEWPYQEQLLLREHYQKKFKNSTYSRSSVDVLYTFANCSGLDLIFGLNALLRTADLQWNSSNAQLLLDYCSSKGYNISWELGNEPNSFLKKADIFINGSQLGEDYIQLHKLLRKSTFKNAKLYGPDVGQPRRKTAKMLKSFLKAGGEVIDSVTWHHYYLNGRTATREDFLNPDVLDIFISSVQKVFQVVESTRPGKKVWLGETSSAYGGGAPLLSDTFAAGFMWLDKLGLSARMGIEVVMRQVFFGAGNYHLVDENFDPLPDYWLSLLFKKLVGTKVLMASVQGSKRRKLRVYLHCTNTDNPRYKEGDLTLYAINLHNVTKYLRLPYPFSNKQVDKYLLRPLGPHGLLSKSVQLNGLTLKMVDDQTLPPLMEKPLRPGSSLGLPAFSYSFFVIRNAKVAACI"}, "[2]": {"system": "T2, p70 heparanase (about 70 kDa form of recombinant human heparanase expressed in mammalian cells)", "T2 sequence": "T1 sequence"}}, "data": [{"substance": "cathepsin L (Cat. No. 219412, Calbiochem)", "values": [{"measurement": "heparanase activity (DMB assay) and Western blot before and after cathepsin L", "setting": "[1]", "value": "demonstrates proteolytic processing of p70-bac heparanase by cathepsin L"}]}, {"substance": "trypsin (Cat. No. T-8642, Sigma USA)", "values": [{"measurement": "heparanase activity (DMB assay) after trypsin digestion of CHO conditioned medium", "setting": "[2]", "value": "recombinant heparanase processing and activation occurred when mild trypsin digestion was employed on a crude conditioned medium of CHO cells that secrete mammalian p70 heparanase (FIG. 27). Activation was dose dependent."}, {"measurement": "heparanase activity (DMB assay) after trypsin digestion", "setting": "[1]", "value": "reaching maximal activation of five-fold already at 15 units trypsin"}]}]}
